Experimental data from patent US7183387.
Read-outs that look alike come from different tables or passages of the source. Each block holds one substance with its values, some of them ahead of it.

Key:
[1] = biological target: human FcγRIA α subunit extracellular domain-His6-GST fusion (human) (UniProt P12314); test: FcγRI ELISA and THP-1 cells, averaged
[2] = biological target: human C1q (Quidel) (human) (UniProt P02745); test: C1q ELISA
[3] = biological target: CD20 antigen on WIL2-S cells (UniProt P11836); test: flow cytometry, WIL2-S cells
[4] = biological target: human FcγRIIIA-Phe158 on cells (CHO cells stably transfected with α- and γ-chains; NK cells of Phe158/Phe158 donors) (human) (UniProt P08637); test: cell-based or functional assay
[5] = biological target: human C1q (Quidel) (human) (UniProt P02745); test: cell-based or functional assay
[6] = biological target: human FcγRIIIA-F158 α subunit extracellular domain-6His-GST fusion (human) (UniProt P08637); test: ELISA, IgG:IgE hexamers on receptor-GST
[7] = biological target: human FcγRIIB α subunit extracellular domain-6His-GST fusion (human) (UniProt P31994); test: ELISA, IgG:IgE hexamers on receptor-GST
[8] = biological target: human FcγRIIA-R131 α subunit extracellular domain-6His-GST fusion (human) (UniProt P12318); test: ELISA, IgG:IgE hexamers on receptor-GST
[9] = biological target: human C1q (Quidel) (human) (UniProt P02745); test: C1q ELISA; remark: listed apart in the source
[10] = biological target: human FcγRIIB α subunit extracellular domain-His6-GST fusion (human) (UniProt P31994); test: immune complex ELISA, E27 background
[11] = biological target: human FcγRIIA-R131 α subunit extracellular domain-His6-GST fusion (human) (UniProt P12318); test: ELISA, IgG:IgE hexamer on coated FcγRIIA-R131-GST; value carried over from Table 6, 7 or 8
[12] = biological target: human neonatal Fc receptor (FcRn), biotinylated (human) (UniProt P55899); test: FcRn ELISA, pH 6.0
[13] = biological target: human FcγRIIA-Arg131 α subunit extracellular domain-His6-GST fusion (human) (UniProt P12318); test: hexamer ELISA
[14] = biological target: human FcγRIIA-R131 α subunit extracellular domain-His6-GST fusion (human) (UniProt P12318); test: ELISA, IgG complex, receptor coated
[15] = biological target: human C1q (Quidel) (human) (UniProt P02745); test: C1q ELISA; remark: listed apart in the source

human C1q (Quidel) (human), sequence (P02745 23-245, chain 1 of 3): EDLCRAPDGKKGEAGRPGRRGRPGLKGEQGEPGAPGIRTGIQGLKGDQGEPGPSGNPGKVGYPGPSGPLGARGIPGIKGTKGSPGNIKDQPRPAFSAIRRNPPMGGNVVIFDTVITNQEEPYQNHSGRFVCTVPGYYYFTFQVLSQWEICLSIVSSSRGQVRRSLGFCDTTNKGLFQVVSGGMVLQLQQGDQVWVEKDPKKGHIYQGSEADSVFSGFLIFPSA
human C1q (Quidel) (human), sequence (P02746 28-253, chain 2 of 3, further chain): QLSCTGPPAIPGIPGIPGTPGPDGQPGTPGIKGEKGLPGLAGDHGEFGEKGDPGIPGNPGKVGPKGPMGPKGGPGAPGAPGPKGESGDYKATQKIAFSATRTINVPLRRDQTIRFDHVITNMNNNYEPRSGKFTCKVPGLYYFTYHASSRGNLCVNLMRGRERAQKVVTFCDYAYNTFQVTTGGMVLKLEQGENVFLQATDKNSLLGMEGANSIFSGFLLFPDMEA
human C1q (Quidel) (human), sequence (P02747 29-245, chain 3 of 3, further chain): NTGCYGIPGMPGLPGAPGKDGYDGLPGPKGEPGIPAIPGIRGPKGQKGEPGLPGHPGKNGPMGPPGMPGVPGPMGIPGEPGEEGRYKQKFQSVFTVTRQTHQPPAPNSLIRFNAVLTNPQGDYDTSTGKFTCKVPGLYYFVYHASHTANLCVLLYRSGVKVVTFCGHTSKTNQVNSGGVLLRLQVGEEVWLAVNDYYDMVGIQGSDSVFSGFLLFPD
CD20 antigen on WIL2-S cells, sequence (P11836 whole entry): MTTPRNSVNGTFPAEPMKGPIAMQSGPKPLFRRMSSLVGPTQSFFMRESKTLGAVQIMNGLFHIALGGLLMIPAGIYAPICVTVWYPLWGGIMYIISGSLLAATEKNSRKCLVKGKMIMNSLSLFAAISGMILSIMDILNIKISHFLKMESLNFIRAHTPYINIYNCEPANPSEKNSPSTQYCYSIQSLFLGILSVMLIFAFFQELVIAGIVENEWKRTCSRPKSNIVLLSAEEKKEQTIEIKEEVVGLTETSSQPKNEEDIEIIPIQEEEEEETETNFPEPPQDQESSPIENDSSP
human FcγRIIB α subunit extracellular domain-6His-GST fusion (human), sequence (P31994 other isoform, or with tags, fused parts or gaps, form in doubt): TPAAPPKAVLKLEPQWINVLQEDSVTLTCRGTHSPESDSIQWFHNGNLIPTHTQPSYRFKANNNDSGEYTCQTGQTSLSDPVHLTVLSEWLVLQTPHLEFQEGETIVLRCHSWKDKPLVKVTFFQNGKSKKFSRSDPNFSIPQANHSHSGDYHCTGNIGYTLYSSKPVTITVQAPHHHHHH
human FcγRIIA-R131 α subunit extracellular domain-His6-GST fusion (human), sequence (P12318 other isoform, or with tags, fused parts or gaps, form in doubt): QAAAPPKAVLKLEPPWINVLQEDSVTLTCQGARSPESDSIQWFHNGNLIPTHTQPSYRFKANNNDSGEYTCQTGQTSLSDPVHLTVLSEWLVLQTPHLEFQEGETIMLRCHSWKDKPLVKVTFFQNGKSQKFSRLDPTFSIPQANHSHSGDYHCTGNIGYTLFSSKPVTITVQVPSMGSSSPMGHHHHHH
human FcγRIIA-R131 α subunit extracellular domain-6His-GST fusion (human), sequence (P12318 other isoform, or with tags, fused parts or gaps, form in doubt): as above
human FcγRIIIA-Phe158 on cells (CHO cells stably transfected with α- and γ-chains; NK cells of Phe158/Phe158 donors) (human), sequence (P08637 17-254, chain 1 of 2): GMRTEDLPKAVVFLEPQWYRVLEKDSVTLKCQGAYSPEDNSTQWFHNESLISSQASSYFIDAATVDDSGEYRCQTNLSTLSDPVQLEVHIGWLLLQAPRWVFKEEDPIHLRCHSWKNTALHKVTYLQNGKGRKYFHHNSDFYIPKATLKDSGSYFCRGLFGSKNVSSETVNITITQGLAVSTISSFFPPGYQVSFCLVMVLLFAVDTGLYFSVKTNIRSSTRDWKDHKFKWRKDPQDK
human FcγRIIIA-Phe158 on cells (CHO cells stably transfected with α- and γ-chains; NK cells of Phe158/Phe158 donors) (human), sequence (P30273 19-86, chain 2 of 2, further chain): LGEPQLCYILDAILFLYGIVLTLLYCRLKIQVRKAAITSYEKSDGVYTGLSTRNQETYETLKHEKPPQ
human FcγRIIB α subunit extracellular domain-His6-GST fusion (human), sequence (P31994 other isoform, or with tags, fused parts or gaps): as the sequence (P31994 other isoform, or with tags, fused parts or gaps, form in doubt) above
human FcγRIIA-Arg131 α subunit extracellular domain-His6-GST fusion (human), sequence (P12318 other isoform, or with tags, fused parts or gaps): as the sequence (P12318 other isoform, or with tags, fused parts or gaps, form in doubt) above
human FcγRIA α subunit extracellular domain-His6-GST fusion (human), sequence (P12314 other isoform, or with tags, fused parts or gaps): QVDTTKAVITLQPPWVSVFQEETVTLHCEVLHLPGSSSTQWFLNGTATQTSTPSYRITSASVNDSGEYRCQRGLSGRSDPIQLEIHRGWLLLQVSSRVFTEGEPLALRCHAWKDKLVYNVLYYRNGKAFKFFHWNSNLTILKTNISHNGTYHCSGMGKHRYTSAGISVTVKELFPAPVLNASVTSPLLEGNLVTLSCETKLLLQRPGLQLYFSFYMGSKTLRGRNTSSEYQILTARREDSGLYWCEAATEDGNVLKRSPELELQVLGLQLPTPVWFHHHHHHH

Substance: anti-IgE E27 IgG1 Asn297Ala (antibody)
ratio to native IgG1 [1]: 0.15

Substance: C2B8 P331A (antibody)
fold lower binding than wild type [2]: 60 fold
percentage of the wild type [3]: 103%

Substance: anti-p185HER2 IgG1 variant Ser298Ala/Glu333Ala/Lys334Ala (antibody)
ADCC, NK cells of Phe158/Phe158 donors [4]: > 100%

Substance: E27 IgG1 variant K320(339)R (IG2 172) (antibody)
ratio to native IgG1 [7]: 0.66
ratio to native IgG1 [8]: 0.71
ratio to native IgG1 [6]: 0.68

Substance: E27 IgG1 variant K320(339)R (IG2 235) (antibody)
ratio to native IgG1 [7]: 0.95
ratio to native IgG1 [8]: 1.24
ratio to native IgG1 [6]: 0.86

Substance: anti-IgE E27 IgG1 Glu233Pro/Leu234Val/Leu235Ala/Gly236deleted (antibody)
ratio to native IgG1 [12]: 0.54
ratio to native IgG1 [13]: 0.08

Substance: C2B8 K326M (antibody)
fold increase in binding against wild type [2]: > 2 fold

Substance: anti-IgE E27 IgG1 variant S298(317)V (antibody)
ratio of binding, variant/native IgG1 (mean) [14]: 0.11

Substance: C2B8 K326D (antibody)
fold increase in binding against wild type [2]: > 2 fold

Substance: C2B8 K326A-E333A (antibody)
CDC [5]: 2 fold
fold better binding than wild type [2]: > 3 fold

Substance: C2B8 K326M-E333S (antibody)
CDC [5]: 2 fold
fold better binding than wild type [2]: > 3 fold

More lines, now with the values ahead:

increase in binding against wild type [2]: 30%
Substance: C2B8 K326A (antibody)

CDC (% of wild type) [5]: 108
percentage of the wild type [3]: 102%
Substance: C2B8 K320A (antibody)

ratio to native IgG1 [6]: 0.05
Substance: E27 IgG1 variant S267(280)T (antibody)

increase in binding against wild type [2]: 30%
Substance: C2B8 E333A (antibody)

fold increase in binding against wild type [2]: > 2 fold
fold increase in binding against wild type [9]: 2 fold
Substance: C2B8 E333S (antibody)

percentage of the wild type [10]: 96%
Substance: anti-IgE E27 IgG1 Pro329Ala (antibody)

ratio of binding of the variant to that of native IgG1 (ratio (variant/native IgG1)) [11]: 0.06
Substance: anti-IgE E27 IgG1 variant Asp270Ala (antibody)

percentage of the wild type [3]: 112%
Substance: C2B8 P329A (antibody)

increase in binding against wild type [2]: 50%
Substance: C2B8 (human IgG1 constant region) A327 changed to glycine (antibody)

fold increase in binding against wild type [2]: > 2 fold
Substance: C2B8 K326E (antibody)

fold increase in binding against wild type [15]: > 2 fold
fold increase in binding against wild type [2]: 5 fold
Substance: C2B8 K326W (antibody)

CDC (% of wild type) [5]: 108
decrease in binding against wild type [2]: 30%
percentage of the wild type [3]: 89%
Substance: C2B8 E318A (antibody)
